From paper PMC6349032

Target: GD-FXaS195A (Gla-domainless factor Xa, catalytically inactive) (UniProt P00742;P00742 85-179;235-488, S419A)
Assay: X-ray crystallography

Sequence of GD-FXaS195A (Gla-domainless factor Xa, catalytically inactive) (P00742 85-179, chain 1 of 2): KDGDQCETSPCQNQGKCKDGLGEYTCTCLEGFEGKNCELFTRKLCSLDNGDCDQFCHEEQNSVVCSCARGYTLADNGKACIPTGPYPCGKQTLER
Sequence of GD-FXaS195A (Gla-domainless factor Xa, catalytically inactive) (P00742 235-488 S419A, chain 2 of 2): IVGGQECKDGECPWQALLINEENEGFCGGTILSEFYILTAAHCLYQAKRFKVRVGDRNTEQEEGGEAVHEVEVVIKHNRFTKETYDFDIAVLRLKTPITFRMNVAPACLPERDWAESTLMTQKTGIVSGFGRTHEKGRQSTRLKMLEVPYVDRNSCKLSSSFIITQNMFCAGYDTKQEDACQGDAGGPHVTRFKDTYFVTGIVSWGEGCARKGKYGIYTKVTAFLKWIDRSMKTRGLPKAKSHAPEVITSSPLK

B1: 11F7t (structured_RNA)
RNA: GAGAGCCCCAGCGAGAUAAUACUUGGCCCCGCUCUU
modifications: all C are 2'-fluoro-C and all U are 2'-fluoro-U; purines A/G as ribonucleotides
B1: binds.
